Measurements from article PMC12718150.

Assays:
[1] = target: 2-hydroxy-hept-2,4-diene-1,7-dioate (HHDD) isomerase (HHDDI) from Acinetobacter baumannii TH (Acinetobacter baumannii TH)
[2] = target: 2-hydroxy-hept-2,4-diene-1,7-dioate (HHDD) isomerase (HHDDI) from Acinetobacter baumannii TH (Acinetobacter baumannii TH); test: SEC; ENrich SEC650 gel filtration column, FPLC; OPETD and HHDDI mixed at 1:1 molar ratio (0.5 and 1.0 mg/ml), incubated on ice in buffer G (50 mM HEPES, pH 7.0, 150 mM NaCl); 0.5 ml/min, 4 °C; native MW from a calibration curve
[3] = target: 2-hydroxy-hept-2,4-diene-1,7-dioate (HHDD) isomerase (HHDDI) from Acinetobacter baumannii TH (Acinetobacter baumannii TH); test: SEC; single purified enzyme (0.5-1.0 mg/ml) on ENrich SEC650 (10 x 300 mm), buffer G (50 mM HEPES, pH 7.0, 150 mM NaCl), 0.5 ml/min, 4 °C; native MW from a calibration curve of protein standards against subunit MW

| Substance | tri-acid decarboxylation activity of the OPETD-HHDDI complex against HHDDI alone (synthesized tri-acid substrate, LC-MS/MS of the di-acid) [1] [fold] | tri-acid decarboxylation activity of the OPETD-HHDDI complex against OPETD alone (synthesized tri-acid substrate, LC-MS/MS of the di-acid) [1] [fold] | stoichiometry N (OPETD per HHDDI) [2] | stoichiometry N [3] |
| --- | --- | --- | --- | --- |
| 5-oxo-pent-3-ene-1,2,5-tricarboxylate (OPET) decarboxylase (OPETD) from Acinetobacter baumannii TH (enzyme) | 12 | 60 | 1 |  |
| 2-hydroxy-hept-2,4-diene-1,7-dioate (HHDD) isomerase (HHDDI) from Acinetobacter baumannii TH (enzyme) |  |  |  | 2 |
